The labels stand for the following.
B1: Transcription elongation factor A N-terminal and central domain-containing protein, residues 30 to 77; numbered along this chain, Q8N8B7 (parent)
chain: LTELETIYVTKEHLQETDVVRAVYRVLKNCPSVALKKKAKCLLSKWKA
B2: Nuclear receptor subfamily 4 group A member 2, residues 260 to 336; numbered along this chain, P43354 (parent)
chain: EGLCAVCGDNAACQHYGVRTCEGCKGFFKRTVQKNAKYVCLANKNCPVDKRRRNRCQYCRFQKCLAVGMVKEVVRTD

± gives the uncertainty stated by the source.

In one data set the parent is B1. The experiment in a line: abundance fitness (aPCA) (normalised: wild type 0, dead -1); higher = more abundant; growth selection in yeast, the domain comes from the species named. The note with it: Homo sapiens.
LTELETIYVTKEHDQETDVVRAVYRVLKNCPSVALKKKAKCLLSKWKA [L14D]: the abundance fitness came out at 0.184 ± 0.083.

The variants in a further data set derive from B2. Described as above. The note with it: Homo sapiens.
With EGLCAVCGDNAACQHYGVRTCEGCKGFFKRTVQKNAKYVCLANKNCPVDKRRRNRCQYCRFQKCLAVGMVKEVVRTR [D77R], the abundance fitness was -0.3 ± 0.089.

On to EGLCAVCGDNAACQHYGVRTCEGCKGFFKRTVQKNAKYVCLANKNCPVDKRRRNRCQYCRFQKCLAVGMVKEVVRTK [D77K], for which the abundance fitness is -0.1 ± 0.18.

As for EGLCAVCGDNAACQHYGVRTCEGCKGFFKRTVQKNAKYVCLANKNCPVDKRRRNRCQYCRFQKCLAVGMVKEVVRTA [D77A], the abundance fitness was -0.006 ± 0.086.

Turning to EGLCAVCGDNAACQHYGVRTCEGCKGFFKRTVQKNAKYVCLANKNCPVDKRRRNRCQYCRFQKCLAVGMVKEVVRTF [D77F], the abundance fitness was -0.229 ± 0.15.

Take EGLCAVCGDNAACQHYGVRTCEGCKGFFKRTVQKNAKYVCLANKNCPVDKRRRNRCQYCRFQKCLAVGMVKEVVRTC [D77C]: the abundance fitness was -0.061 ± 0.095.

For EGLCAVCGDNAACQHYGVRTCEGCKGFFKRTVQKNAKYVCLANKNCPVDKRRRNRCQYCRFQKCLAVGMVKEVVRTW [D77W], the abundance fitness was -0.211 ± 0.075.

On to EGLCAVCGDNAACQHYGVRTCEGCKGFFKRTVQKNAKYVCLANKNCPVDKRRRNRCQYCRFQKCLAVGMVKEVVRTM [D77M], for which the abundance fitness is -0.092 ± 0.14.

Turning to EGLCAVCGDNAACQHYGVRTCEGCKGFFKRTVQKNAKYVCLANKNCPVDKRRRNRCQYCRFQKCLAVGMVKEVVRTE [D77E], the abundance fitness was determined as 0.117 ± 0.14.

For the variant EGLCAVCGDNAACQHYGVRTCEGCKGFFKRTVQKNAKYVCLANKNCPVDKRRRNRCQYCRFQKCLAVGMVKEVVRTP [D77P], the abundance fitness was 0.163 ± 0.18.

Consider EGLCAVCGDNAACQHYGVRTCEGCKGFFKRTVQKNAKYVCLANKNCPVDKRRRNRCQYCRFQKCLAVGMVKEVVRTG [D77G], for which the abundance fitness was -0.042 ± 0.044.

On to EGLCAVCGDNAACQHYGVRTCEGCKGFFKRTVQKNAKYVCLANKNCPVDKRRRNRCQYCRFQKCLAVGMVKEVVRTL [D77L], for which the abundance fitness is -0.101 ± 0.077.

In the case of EGLCAVCGDNAACQHYGVRTCEGCKGFFKRTVQKNAKYVCLANKNCPVDKRRRNRCQYCRFQKCLAVGMVKEVVRTI [D77I], the abundance fitness was -0.347 ± 0.31.

As to EGLCAVCGDNAACQHYGVRTCEGCKGFFKRTVQKNAKYVCLANKNCPVDKRRRNRCQYCRFQKCLAVGMVKEVVRTS [D77S], the abundance fitness is -0.124 ± 0.12.

With EGLCAVCGDNAACQHYGVRTCEGCKGFFKRTVQKNAKYVCLANKNCPVDKRRRNRCQYCRFQKCLAVGMVKEVVRTV [D77V], the abundance fitness was -0.122 ± 0.065.

In the case of EGLCAVCGDNAACQHYGVRTCEGCKGFFKRTVQKNAKYVCLANKNCPVDKRRRNRCQYCRFQKCLAVGMVKEGVRTD [V73G], the abundance fitness is -0.024 ± 0.033.

Take EGLCAVCGDNAACQHYGVRTCEGCKGFFKRTVQKNAKYVCLANKNCPVDKRRRNRCQYCRFQKCLAVGMVKEWVRTD [V73W]: the abundance fitness is -0.104 ± 0.053.

With EGLCAVCGDNAACQHYGVRTCEGCKGFFKRTVQKNAKYVCLANKNCPVDKRRRNRCQYCRFQKCLAVGMVKEAVRTD [V73A], the abundance fitness was -0.258 ± 0.076.

For the variant EGLCAVCGDNAACQHYGVRTCEGCKGFFKRTVQKNAKYVCLANKNCPVDKRRRNRCQYCRFQKCLAVGMVKELVRTD [V73L], the abundance fitness was -0.065 ± 0.08.

In the case of EGLCAVCGDNAACQHYGVRTCEGCKGFFKRTVQKNAKYVCLANKNCPVDKRRRNRCQYCRFQKCLAVGMVKEMVRTD [V73M], the abundance fitness is -0.032 ± 0.17.

Regarding EGLCAVCGDNAACQHYGVRTCEGCKGFFKRTVQKNAKYVCLANKNCPVDKRRRNRCQYCRFQKCLAVGMVKESVRTD [V73S], the abundance fitness is -0.305 ± 0.17.

As to EGLCAVCGDNAACQHYGVRTCEGCKGFFKRTVQKNAKYVCLANKNCPVDKRRRNRCQYCRFQKCLAVGMVKEEVRTD [V73E], the abundance fitness was -0.063 ± 0.086.

Consider EGLCAVCGDNAACQHYGVRTCEGCKGFFKRTVQKNAKYVCLANKNCPVDKRRRNRCQYCRFQKCLAVGMVKETVRTD [V73T], for which the abundance fitness turned out to be 0.274 ± 0.43.

Turning to EGLCAVCGDNAACQHYGVRTCEGCKGFFKRTVQKNAKYVCLANKNCPVDKRRRNRCQYCRFQKCLAVGMVKEFVRTD [V73F], the abundance fitness was found to be 0.02 ± 0.074.

Regarding EGLCAVCGDNAACQHYGVRTCEGCKGFFKRTVQKNAKYVCLANKNCPVDKRRRNRCQYCRFQKCLAVGMVKERVRTD [V73R], the abundance fitness was -0.099 ± 0.091.

In the case of EGLCAVCGDNAACQHYGVRTCEGCKGFFKRTVQKNAKYVCLANKNCPVDKRRRNRCQYCRFQKCLAVGMVKECVRTD [V73C], the abundance fitness was -0.131 ± 0.071.

Turning to EGLCAVCGDNAACQHYGVRTCEGCKGFFKRTVQKNAKYVCLANKNCPVDKRRRNRCQYCRFQKCLAVGMVKEDVRTD [V73D], the abundance fitness is -0.105 ± 0.14.

On to EGLCAVCGDNAACQHYGVRTCEGCKGFFKRTVQKNAKYVCLANKNCPVDKRRRNRCQYCRFQKCLAVGMVKEHVRTD [V73H], for which the abundance fitness turned out to be 0.014 ± 0.32.

EGLCAVCGDNAACQHYGVRTCEGCKGFFKRTVQKNAKYVCLANKNCPVDKRRRNRCQYCRFQKCLAVGMVKEVVRDD [T76D]: the abundance fitness turned out to be 0.098 ± 0.098.

In the case of EGLCAVCGDNAACQHYGVRTCEGCKGFFKRTVQKNAKYVCLANKNCPVDKRRRNRCQYCRFQKCLAVGMVKEVVRND [T76N], the abundance fitness came out at 0.221 ± 0.42.

As for EGLCAVCGDNAACQHYGVRTCEGCKGFFKRTVQKNAKYVCLANKNCPVDKRRRNRCQYCRFQKCLAVGMVKEVVRQD [T76Q], the abundance fitness was -0.152 ± 0.19.

For the variant EGLCAVCGDNAACQHYGVRTCEGCKGFFKRTVQKNAKYVCLANKNCPVDKRRRNRCQYCRFQKCLAVGMVKEVVRAD [T76A], the abundance fitness is 0.117 ± 0.067.

On to EGLCAVCGDNAACQHYGVRTCEGCKGFFKRTVQKNAKYVCLANKNCPVDKRRRNRCQYCRFQKCLAVGMVKEVVRLD [T76L], for which the abundance fitness is -0.228 ± 0.071.

For the variant EGLCAVCGDNAACQHYGVRTCEGCKGFFKRTVQKNAKYVCLANKNCPVDKRRRNRCQYCRFQKCLAVGMVKEVVRCD [T76C], the abundance fitness is 0.109 ± 0.057.

For EGLCAVCGDNAACQHYGVRTCEGCKGFFKRTVQKNAKYVCLANKNCPVDKRRRNRCQYCRFQKCLAVGMVKEVVRMD [T76M], the abundance fitness is -0.166 ± 0.17.

The values above are taken from the Human Domainome abundance scans (Beltran et al. 2025).
